B1: E3 ubiquitin-protein ligase RNF4 (Rattus norvegicus (Rat)), O88846 (parent)
chain: MSTRNPQRKRRGGAVNSRQTQKRTRETTSTPEISLEAEPIELVETVGDEIVDLTCESLEPVVVDLTHNDSVVIVEERRRPRRNGRRLRQDHADSCVVSSDDEELSKDKDVYVTTHTPRSTKDEGTTGLRPSGTVSCPICMDGYSEIVQNGRLIVSTECGHVFCSQCLRDSLKNANTCPTCRKKINHKRYHPIYI

Variants of: B1
Conditions: with sumo2_human SUMO2, P61956
Sequence of sumo2_human SUMO2, P61956 (P61956 whole entry): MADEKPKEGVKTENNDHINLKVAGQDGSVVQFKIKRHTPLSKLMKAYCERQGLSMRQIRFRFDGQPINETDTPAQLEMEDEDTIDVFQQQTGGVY

| Variant | effect of a mutation on the interaction |
| --- | --- |
| V71A | disrupting interaction |
| I40A | disrupting interaction |
| V72A | disrupting interaction |
| V51A | disrupting interaction |
| V61A | disrupting interaction |
| V63A | disrupting interaction |
| I50A | disrupting interaction |
| V62A | disrupting interaction |
| L42A | disrupting interaction |
| V43A | disrupting interaction |
| L53A | disrupting interaction |
| V74A | disrupting interaction |
| I73A | disrupting interaction |

Source: IntAct's records for PubMed 21252943
